Earlier results in paper PMC5266585.

Columns and labels:
[1] = target: LRP1 CR4-CR5-CR6 (Homo sapiens) (UniProt Q07954)
[2] = target: LRP1 principal ligand binding region fragments (Homo sapiens) (UniProt Q07954)

**Q.** For PAI-1 (from UniProt P05121), which Kd [1] is on record?
**A.** 1.5 nM

**Q.** What about the Kd [2] of the same substance?
**A.** < 3 nM
